Test results as given in US20100092460A1 (Ablynx, published 2010).
Like-named read-outs stand apart in the source and are kept apart here. Values belong to the binder of their own block, whether it stands above or below them.

B1: recombinant human CXCL11/I-TAC (ligand, UniProt O14625 22-94, looked up)
chain: FPMFKRGRCLCIGPGVKAVKVADIEKASIMYPSNNCDKIEVIITLKENKGQRCLNPKSKQARLIIKKVERKNF
modifications: biotinylated in the ELISA; 125I label in the radioligand assays
B2: CCL5 (ligand, UniProt P13501 24-91, looked up)
chain: SPYSSDTTPCCFAYIARPLPRAHIKEYFYTSGKCSNPAVVFVTRKNRQVCANPEKKWVREYINSLEMS
modifications: also: 125I label, position not given here
notes: also called RANTES

How the values were obtained:
hCXCR3 = molecular target: T1, hCXCR3 (human, UniProt P49682 1-368); assay: competition of unlabeled CXCL11 with 125I-CXCL11 on HEK293T cells with hCXCR3
T1 construct: whole, on cells
T1 sequence (looked up): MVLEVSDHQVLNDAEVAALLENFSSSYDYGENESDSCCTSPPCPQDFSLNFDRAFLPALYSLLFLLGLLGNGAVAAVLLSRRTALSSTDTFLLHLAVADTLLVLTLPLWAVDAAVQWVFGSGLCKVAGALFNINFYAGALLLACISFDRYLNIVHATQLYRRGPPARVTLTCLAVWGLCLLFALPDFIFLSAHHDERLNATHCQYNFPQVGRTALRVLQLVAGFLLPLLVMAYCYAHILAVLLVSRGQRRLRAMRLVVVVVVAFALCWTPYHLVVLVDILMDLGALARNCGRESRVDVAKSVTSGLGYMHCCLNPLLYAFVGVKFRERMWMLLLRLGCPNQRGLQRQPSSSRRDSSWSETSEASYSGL

hCCR1 = molecular target: T2, hCCR1 (human, UniProt P32246 1-355); assay: competition of unlabeled CCL5 with 125I-CCL5 on HEK293T cells with hCCR1
T2 construct: whole, on cells
T2 sequence (looked up): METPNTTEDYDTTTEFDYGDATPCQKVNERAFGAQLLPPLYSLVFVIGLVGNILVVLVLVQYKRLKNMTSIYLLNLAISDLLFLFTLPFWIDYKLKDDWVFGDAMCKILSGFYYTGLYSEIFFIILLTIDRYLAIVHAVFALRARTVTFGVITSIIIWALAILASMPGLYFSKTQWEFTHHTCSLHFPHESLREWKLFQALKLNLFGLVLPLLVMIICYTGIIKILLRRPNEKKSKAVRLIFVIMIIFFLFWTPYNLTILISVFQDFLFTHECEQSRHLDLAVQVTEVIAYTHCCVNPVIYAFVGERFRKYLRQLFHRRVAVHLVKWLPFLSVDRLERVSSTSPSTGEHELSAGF

[1] = molecular target: T3, recombinant human CCL2/MCP1 (human, UniProt P13500 24-99, 125I label in the radioligand assays); assay: inhibition of 125I-CCL2 binding to hCCR2 (HEK293T cells), purified Nanobody and 10x diluted extract
T3 construct: Immunogen and selection antigen was the Mucin stalk Chimera (R&D 979-MC/CF)
T3 sequence (P13500 24-99 limits assumed): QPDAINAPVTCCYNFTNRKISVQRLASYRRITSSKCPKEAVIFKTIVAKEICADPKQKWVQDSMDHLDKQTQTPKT

[2] = molecular target: T4, recombinant human CCL5/RANTES (Mucin stalk Chimera) (human, UniProt P13501 24-91, biotinylated in the ELISA); assay: ELISA, periplasmic extract on biotinylated mucin-CCL5 on neutravidin, anti-myc detection
T4 construct: also called mucin-CCL5; not shown: mucin stalk of the chimera (R&D 978-RN/CF); origin, limits and order not described
T4 sequence (looked up): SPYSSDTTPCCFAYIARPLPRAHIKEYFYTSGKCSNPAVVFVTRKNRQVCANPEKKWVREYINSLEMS

CCL5 [3] = molecular target: B2; assay: inhibition of 125I-CCL5 binding to hCCR1 (HEK293T cells), purified Nanobody
[4] = molecular target: T3, recombinant human CCL2/MCP1; assay: inhibition of 125I-CCL2 binding to hCCR2 (HEK293T cells), purified Nanobody
[5] = molecular target: T3, recombinant human CCL2/MCP1; assay: inhibition of 125I-CCL2 (59 pM) binding to HA3-CCR2 on HEK293T cells; radioligand preincubated with purified Nanobody
[6] = molecular target: B1; assay: inhibition of 125I-CXCL11 (46 pM) binding to hCXCR3 on HEK293T cells; radioligand preincubated with purified Nanobody
[7] = molecular target: B1; assay: cell-based or functional assay
CCL5 [8] = molecular target: B2; assay: inhibition of 125I-CCL5 (56 pM) binding to CCR1 on HEK293T cells; radioligand preincubated with purified Nanobody
[9] = molecular target: B1; assay: inhibition of 125I-CXCL11 binding to hCXCR3 (HEK293T cells), purified Nanobody
[10] = molecular target: T3, recombinant human CCL2/MCP1; assay: inhibition of 125I-CCL2 binding to hCCR2 (HEK293T cells), 10x diluted extract
CCL5 [11] = molecular target: B2; assay: inhibition of 125I-CCL5 binding to hCCR1 (HEK293T cells), purified Nanobody; remark: listed apart in the source
[12] = molecular target: T5, recombinant human CXCL12/SDF1alpha (human, UniProt P48061-2 22-89, biotinylated in the ELISA; 125I label in the radioligand assays); assay: inhibition of 125I-CXCL12 (57 pM) binding to CXCR4 on HEK293T cells; radioligand preincubated with purified Nanobody; total binding data
T5 sequence (P48061 22-89 limits assumed): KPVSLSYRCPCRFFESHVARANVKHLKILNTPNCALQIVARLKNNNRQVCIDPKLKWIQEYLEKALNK

[13] = molecular target: T5, recombinant human CXCL12/SDF1alpha; assay: cell-based or functional assay
[14] = molecular target: T5, recombinant human CXCL12/SDF1alpha; assay: inhibition of 125I-CXCL12 (57 pM) binding to CXCR4 on HEK293T cells; specific-binding data
[15] = molecular target: B1; assay: inhibition of 125I-CXCL11 binding to hCXCR3 (HEK293T cells), 10x diluted periplasm; ELISA grade at the label

- binding result [4]: binds
B5: Nanobody 8A3 (VHH)
VHH: EVQLVESGGGLVQAGGSLRLSCVASGLTFSTYSMGWFRQAPGKEREFVAAINGGGSSTTYADSVKGRFTISRDNAKNTVYLQMNSLKPEDTAVYSCAVKMYSGSYSSPPGYNYWGQGTQVTVSS
notes: llama VHH against CCL2; not shown: C-terminal c-myc tag and (His)6 tag coded by the vector

- binding result [9]: binds
B9: Nanobody 11G9 (VHH)
VHH: EVQLVESGGGLVQPGGSLRLSCAASGGTLDDYVIGWFRQAPGKEREGVSCISSTDGSTYYADSVKGRFTISRDNAKNTVYLQVNSLKPEDTAVYYCAAGMGVLRQWALSKLSYDYWGQGTQVTVSS
notes: llama VHH against CXCL11; not shown: C-terminal c-myc tag and (His)6 tag coded by the vector

- binding result [10]: binds
B10: Nanobody 16D5 (VHH)
VHH: EVQLVESGGGLVQAGGSLRLSCAASGFTFDDYAIAWFRQAPGKEREVVSCISSSDGSTYYADSVKGRFTISSDNAKNTVFLQMNSLKPEDTAVYYCAAVSNCPRDSDYIPYLHYWWGQGTQVTVSS
notes: as for B5

- binding result [2]: binds
- binding result (CCL5 [11]): binds
B12: Nanobody 10A12 (VHH)
VHH: EVQLVESGGGLVQAGGSLRLSCAASGFTFDDYAIGWFRQVPGKERKGVSCISSSDGTTYYEDSVKGRFTISSDNAKNTIYLQMNSLKPEDTAVYYCAAAPPDCTYYPATPIYYWGQGTQVTVSS
notes: llama VHH against CCL5; purified; not shown: C-terminal c-myc tag and (His)6 tag coded by the vector

- binding result [4]: binds
B15: Nanobody 8D3 (VHH)
VHH: EVQLVESGGGLVQAGGSLRLSCAASGRTFSNYAMGWFRQAPGKEREFVAAISWSDGSTYYADSVKGRFTISRDNAKNTVYLLMNSLNPEDTAVYYCAADLLAEDPAAPSRGYDYWGQGTQVTVSS
notes: as for B5

- binding result [2]: binds
- binding result (CCL5 [11]): binds
B16: Nanobody 10E8 (VHH)
VHH: EVQLVESGGGLVQAGGSLRLSCAASGRTFSSYYMGWFRQAPGKEREFVARIGWSSGSTYYADSMKGRFTISRDNAKNTVYLQMNSLKPEDTAVYYCAAAPRYTLATVTYDYDYWGQGTQVTVSS
notes: as for B12

Second part, the binder before the results:

Binder: B1
- binding result (hCXCR3): binds

Binder: B2
- binding result (hCCR1): binds

B3: Nanobody 16C1 (VHH)
VHH: EVQLVESGGGLVQAGGSLRLSCAASGRTFSSYVMGWFRQAPGKEREFVAAIRWSGGSTYYADSVKGRFTISRDNAKNTVYLQMNSLKPEDTAVYYCAADLLGDSDYEPSSGFGSWGQGTQVTVSS
notes: as for B5
- binding result [1]: binds

B4: Nanobody 10H3 (VHH)
VHH: EVQLVESGGGLVQAGGSLRLSCAASGRTFSTYVMGWFRQAPGKEREFVAGITSSIGVTRYAGSVQDRFTISKDNAKNTVFLQMNSLKPEDTADYYCAARPDYYISINPVAYPYWGQGTQVTVSS
notes: as for B12
- binding result [2]: binds
- binding result (CCL5 [3]): binds

B6: Nanobody 8E3 (VHH)
VHH: EVQLVESGGGLVQAGGSLRLSCAASGGTFSSYRMGWFRQAPGKEREFVTLISRSGGTTDYTDSVKGRFTISRDNAKNTVSLQMNNLKPADTAVYYCAAAGSMGWNHLRDYDYWGQGTQVTVSS
notes: llama VHH against CCL2; purified; not shown: C-terminal c-myc tag and (His)6 tag coded by the vector
- pIC50 [5]: 9

B7: Nanobody 11B1 (VHH)
VHH: EVQLVESGGGLVQAGGSLRLSCAASGFTFDDYTIGWFRQAPGKEREGVSCISSSDGSTYYADSVKGRFTISSDNVKNTVYLQMNSLKPEDTAVYYCAASLGFLTAQCMGVMSIGLSEYDYWGQGTQVTVSS
notes: llama VHH against CXCL11; purified; not shown: C-terminal c-myc tag and (His)6 tag coded by the vector
- pIC50 [6]: 9.6
- inhibition of CXCL11-induced PLC activation (3H-inositol phosphate accumulation, HEK293T cells with CXCR3 and G-alpha-qi5), pIC50 [7]: 7.8

B8: Nanobody 10C8 (VHH)
VHH: EVQLVESGGGLVQAGDSLRLSCATSGRTFTMDGMGWFRQAPGKEREFVATISRSGVGTFYADSVKGRFTISRDNAKNMVYLQMNSLKPEDTALYYCAARPDYTLGTSSYDYDSWGQGTQVTVSS
notes: llama VHH against CCL5; purified; also called 10D8; 10E9; not shown: C-terminal c-myc tag and (His)6 tag coded by the vector
- pIC50 (CCL5 [8]): 9.3

B11: Nanobody 17B11 (VHH)
VHH: EVQLVESGGGLVQAGGSLRLSCAASGFNFDDYAIGWFRQAPGKEREGVSCISSSDGSTYSADSVKGRFTISSDNAKNTVYLQMNNLNPEDTAAYYCAAAPPDCTYYPATPIYYWGQGTQVTVSS
notes: as for B12
- pIC50 (CCL5 [8]): 9

B13: Nanobody 12A4 (VHH)
VHH: EVQLVESGGGLVQPGGSLRLSCAASGFTLDDYAIGWFRQAPGKEREGVSCINSNDGNTYYADSVKGRFTISRDNAKSTVYLQMNSLKPDDTAVYYCAAEAMGYCSAYGSFEGYWGQGTQVTVSS
notes: llama VHH against CXCL12; purified; also called 12C1; 12E4; not shown: C-terminal c-myc tag and (His)6 tag coded by the vector
- pIC50 [12]: 8.7
- inhibition of CXCL12-induced PLC activation (3H-inositol phosphate accumulation, HEK293T cells with CXCR4 and G-alpha-qi5), pIC50 [13]: 7.2
- pIC50 [14]: 9.1

B14: Nanobody 8E10 (VHH)
VHH: EVQLVESGGGLVQAGDSLRLSCAASGRTFSSYRMGWFRQAPGKEREFVAAISRSGASAYYADSVKGRFTCSRDNAKDTVYLQMNKLKPEDTAVYYCAASSRMGVDDPETYGYWGQGTQVTVSS
notes: as for B6
- pIC50 [5]: 8.7

B17: Nanobody 11A7 (VHH)
VHH: EVQLVESGGGLVQAGGSLRLSCAASGFTFDDYAIGWFRQAPGKEREGVSIISSSDGSTYYADSVKGRFTISSDNAKNTVYLQMNSLKPEDTAVYYCAAGQGWVIATMTSFRAHREYDYWGQGTQVTVSS
notes: llama VHH against CXCL11; also called 11E10; 11E11; not shown: C-terminal c-myc tag and (His)6 tag coded by the vector
- binding result [15]: binds

B18: Nanobody 11B7 (VHH)
VHH: EVQLVESGGGLVQAGGSLRLSCAASGFNFDDYAIGWFRQAPGKEREGVSIISSSDGNTYYADSVKGRFTISSDNAKNTVYLQMNSLKPEDTAVYYCAAGQGWVIATMTSFRAHREYDYWGQGTQVTVSS
notes: as for B7
- pIC50 [6]: 9.6
- inhibition of CXCL11-induced PLC activation (3H-inositol phosphate accumulation, HEK293T cells with CXCR3 and G-alpha-qi5), pIC50 [7]: 7.9
